Common to all, as to conditions: protein: commercial; blunt, no nick
The target of series [1] is T1, T4 DNA ligase (UniProt P00970 1-487).
T1 sequence: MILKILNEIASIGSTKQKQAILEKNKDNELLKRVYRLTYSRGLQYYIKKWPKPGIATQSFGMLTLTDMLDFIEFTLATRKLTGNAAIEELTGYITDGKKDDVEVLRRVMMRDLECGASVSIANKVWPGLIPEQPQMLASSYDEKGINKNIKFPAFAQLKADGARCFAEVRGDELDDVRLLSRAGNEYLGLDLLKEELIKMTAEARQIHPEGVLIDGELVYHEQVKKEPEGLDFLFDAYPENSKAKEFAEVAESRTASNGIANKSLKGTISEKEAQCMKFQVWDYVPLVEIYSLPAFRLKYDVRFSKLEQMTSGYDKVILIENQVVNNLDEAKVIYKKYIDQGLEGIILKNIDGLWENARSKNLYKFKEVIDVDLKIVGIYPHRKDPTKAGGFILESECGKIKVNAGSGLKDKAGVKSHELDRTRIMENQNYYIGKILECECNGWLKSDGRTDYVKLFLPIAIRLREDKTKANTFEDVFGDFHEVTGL
Nature of the series: competition (nick-ligation inhibition, competitive fit); 1 mM ATP, 10 mM Mg2+; EMSA: 50 mM Tris pH 7.5, 5 mM DTT, 5 mM Mg2+, 1 mM sodium pyrophosphate, 5% glycerol, room temperature (22 C), 20 min; ligation competition: 50 mM Tris-HCl pH 7.5, 1 mM ATP, 10 mM MgCl2, 10 mM DTT, 16 C. (Mobility shift assays separate free from complexed probe on a gel.)

In series [2] the target is T1, T4 DNA ligase. The series is described as follows: competition (nick-ligation inhibition); Ki x N sites; per binding site, N=34, assumed 24 bp footprint; derived from the Ki; EMSA: 50 mM Tris pH 7.5, 5 mM DTT, 5 mM Mg2+, 1 mM sodium pyrophosphate, 5% glycerol, room temperature (22 C), 20 min; ligation competition: 50 mM Tris-HCl pH 7.5, 1 mM ATP, 10 mM MgCl2, 10 mM DTT, 16 C.

Series [3] addresses T1, T4 DNA ligase. The series is described as follows: competition (nick-ligation inhibition); Ki x N sites; per binding site, N~100, assumed 24 bp footprint; derived from the Ki; EMSA: 50 mM Tris pH 7.5, 5 mM DTT, 5 mM Mg2+, 1 mM sodium pyrophosphate, 5% glycerol, room temperature (22 C), 20 min; ligation competition: 50 mM Tris-HCl pH 7.5, 1 mM ATP, 10 mM MgCl2, 10 mM DTT, 16 C.

Series [4] addresses T1, T4 DNA ligase. Nature of the series: competition (nick-ligation inhibition, competitive fit); 20 nM FAM-labeled nicked substrate, 25 pM ligase, 1 mM ATP, 10 mM Mg2+, 16 C; EMSA: 50 mM Tris pH 7.5, 5 mM DTT, 5 mM Mg2+, 1 mM sodium pyrophosphate, 5% glycerol, room temperature (22 C), 20 min; ligation competition: 50 mM Tris-HCl pH 7.5, 1 mM ATP, 10 mM MgCl2, 10 mM DTT, 16 C.

B1: I-40-dsDNA (dsDNA)
DNA 1: CACATATGAGAAGGTATTTGCCCGATAATCAATACTCCAG
DNA 2: CTGGAGTATTGATTATCGGGCAAATACCTTCTCATATGTG
As to B1, the affinity with T4 DNA ligase [1], expressed as Ki, was 0.2 ± 0.03 µM. Further, the affinity with T4 DNA ligase [2], expressed as Kd, was 7 ± 1 µM.

B2: I-75-dsDNA (dsDNA)
DNA 1: AGAGAAGATGACTACTGAGTTGTGCGATCCCTGCACTTCAGCTAAGGAAGCTACCAATATTTAGTTTCCGAGTCT
DNA 2: AGACTCGGAAACTAAATATTGGTAGCTTCCTTAGCTGAAGTGCAGGGATCGCACAACTCAGTAGTCATCTTCTCT
As to B2, binding with T4 DNA ligase [3] was put at a Kd of 10 ± 2 µM. In the series with T4 DNA ligase [4], this molecule returned a Ki of 0.1 ± 0.02 µM.

A word on the Ki: it is a measure of affinity in units of concentration, obtained from inhibition or displacement. Broadly, the Kd is the constant that tells how readily two partners part at equilibrium. The low end stands for a tighter complex, the high end for a looser complex.

The record behind these values is PMC4782999, “The Inhibitory Effect of Non-Substrate and Substrate DNA on the Ligation and Self-Adenylylation Reactions Catalyzed by T4 DNA Ligase”.
